Test [1] deals with T1, VEGF (UniProt P15692-4 27-191, limits assumed).
T1 construct: In the BLI assay the VEGF was biotin-labeled (Sulfo-NHS biotin, molar ratio 2:1) and loaded on an SA probe
Nature of the test: BLI (Octet-QK), biotin-labeled VEGF on SA probe; repeat 1. The text has this: (§1) The binding affinity of the fusion protein is detected using BLI(Bio-layer inteferometry, ForteBio). […] Biotin not involved in labeling is removed by dialysis. […] The buffer used in the experiment is PBS (containing 0.1% Tween-20). […] Based on the program settings, the fusion protein is bound, and then dissociated in PBST solution, to obtain the experimental curve. According to the result analysis software of Octet-QK, local full is used to fit the curve of the experimental results, to calculate kon, kdis and Kd.
In general terms: BLI is a label-free optical method that tracks binding on a fibre tip over time.

For test [2], the target named is T1, VEGF. The test is described as follows: BLI (Octet-QK), biotin-labeled VEGF on SA probe; repeat 2.
Description: as §1

In test [3] the target is T1, VEGF. Nature of the test: BLI (Octet-QK), biotin-labeled VEGF on SA probe; average value of 3 repeats.
Description: as §1

In test [4] the target is T1, VEGF. The test is described as follows: VEGF receptor competitive inhibition ELISA: sample in 3-fold dilutions premixed with 1 µg/mL VEGF, added to coated VEGF Receptor 2/KDR, bound VEGF detected with anti-VEGF antibody.
Description: Blocking the ELISA plate with 1% BSA/TBS and placing at 37° C. for 2 h. […] The KDR-coated ELISA plate is washed twice and pat-dried. Then, the gradiently diluted mixture samples are successively transferred to the ELISA plate and placed at 37° C. for 1 h, then the plate is washed 5 times. […] The plate is placed at 37° C. for 1 h and washed 5 times. […] The plate is placed at 37° C. for 1 h and washed for 6 times. After the reaction, adding the color developing solution, and developing the color at 37° C. for 15 min. Adding the stop buffer to terminate the color reaction. Reading the OD450 value on the microplate reader.
Test [5] deals with T1, VEGF. The test is described as follows: BLI (Octet-QK), biotin-labeled VEGF on SA probe; repeat 3.
Description: as §1

In general, Kd refers to the equilibrium constant for the complex coming apart. High values mean a looser complex, low ones a tighter complex. As a reminder, the IC50 is the concentration that inhibits the measured activity by half.

T1 sequence (P15692 other isoform, or with tags, fused parts or gaps limits assumed): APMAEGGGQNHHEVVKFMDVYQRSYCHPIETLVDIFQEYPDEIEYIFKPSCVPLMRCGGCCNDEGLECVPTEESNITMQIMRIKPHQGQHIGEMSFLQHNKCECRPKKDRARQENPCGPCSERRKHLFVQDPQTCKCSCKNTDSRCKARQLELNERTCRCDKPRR

B1: ankyrin repeat protein binding to VEGF (designed binder)
chain: GSDLDKKLLEAARAGQDDEVRILMANGADVNARDSTGWTPLHLAAPWGHPEIVEVLLKNGADVNAADFQGWTPLHLAAAVGHLEIVEVLLKYGADVNAQDKFGKTAFDISIDNGNEDLAEILQKAA
notes: Unfused ARVEGF used as comparator; also called ARVEGF
Consider B1, for which the Kd in the test with VEGF [1] worked out at 0.55 nM; in the test with VEGF [2] it was 0.47 nM; in the test with VEGF [3], 0.54 nM; with VEGF [5] it was 0.59 nM. In the test with VEGF [4], this molecule came in with an IC50 of 0.64 nM.

The values are drawn from patent publication US20220073563A1 (ZHEJIANG DOER BIOLOGICS, published 2022).
